Patent US20230091315A1 (CISBIO BIOASSAYS, published 2023)

Legend:
[1] = target: T1, human Gαz fused in its N-terminal part with the tags Twin-Strep-tag and FLAG, overexpressed in HEK293 cells (human, UniProt P19086 1-355); assay: HTRF on HEK293 cells overexpressing the TST-Flag-tagged Gα: antibody-d2 (10 nM) + anti-Twin-Strep-tag-Lumi4 Tb (0.5 nM), in buffer, GDP 10 µM or GTPγS 10 µM
T1 construct: not shown: N-terminal Twin-Strep-tag and FLAG tags

[2] = target: T2, human Gαi2 fused in its N-terminal part with the tags Twin-Strep-tag and FLAG, overexpressed in HEK293 cells (human, UniProt P04899 1-355); assay: as above
T2 construct: not shown: N-terminal Twin-Strep-tag and FLAG tags
T2 sequence (P04899 whole entry, the tested form may be a part): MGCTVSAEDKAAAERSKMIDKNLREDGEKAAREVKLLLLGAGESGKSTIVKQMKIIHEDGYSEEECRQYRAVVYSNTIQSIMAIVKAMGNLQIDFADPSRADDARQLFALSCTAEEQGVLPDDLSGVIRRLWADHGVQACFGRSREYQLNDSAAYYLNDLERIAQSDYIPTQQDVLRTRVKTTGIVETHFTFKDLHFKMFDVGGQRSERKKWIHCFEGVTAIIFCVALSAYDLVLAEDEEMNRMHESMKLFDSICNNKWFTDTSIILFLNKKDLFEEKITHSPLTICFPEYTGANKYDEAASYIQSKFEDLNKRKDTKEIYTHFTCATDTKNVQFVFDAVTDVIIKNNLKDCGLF

[3] = target: T3, human Gαi3 fused in its N-terminal part with the tags Twin-Strep-tag and FLAG, overexpressed in HEK293 cells (human, UniProt P08754 1-354); assay: as above
T3 construct: not shown: N-terminal Twin-Strep-tag and FLAG tags
T3 sequence (P08754 whole entry, the tested form may be a part): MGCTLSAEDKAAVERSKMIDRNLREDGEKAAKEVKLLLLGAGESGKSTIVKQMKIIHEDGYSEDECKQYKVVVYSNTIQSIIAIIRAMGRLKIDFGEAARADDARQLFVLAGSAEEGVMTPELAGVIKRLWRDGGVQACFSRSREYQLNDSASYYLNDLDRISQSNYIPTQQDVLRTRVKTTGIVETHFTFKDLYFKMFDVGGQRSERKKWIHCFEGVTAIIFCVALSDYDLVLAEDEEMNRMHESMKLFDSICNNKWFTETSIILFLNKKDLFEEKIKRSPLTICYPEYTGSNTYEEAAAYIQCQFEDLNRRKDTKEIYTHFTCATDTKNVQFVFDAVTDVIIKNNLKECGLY

[4] = target: T4, human Gα13 fused in its N-terminal part with the tags Twin-Strep-tag and FLAG, overexpressed in HEK293 cells (human, UniProt Q14344 1-377); assay: HTRF on HEK293 cells overexpressing the TST-Flag-tagged Gα: antibody-d2 (10 nM) + anti-Twin-Strep-tag-Lumi4 Tb, in buffer, GDP 10 µM or GTPγS 10 µM
T4 construct: not shown: N-terminal Twin-Strep-tag and FLAG tags
T4 sequence (looked up): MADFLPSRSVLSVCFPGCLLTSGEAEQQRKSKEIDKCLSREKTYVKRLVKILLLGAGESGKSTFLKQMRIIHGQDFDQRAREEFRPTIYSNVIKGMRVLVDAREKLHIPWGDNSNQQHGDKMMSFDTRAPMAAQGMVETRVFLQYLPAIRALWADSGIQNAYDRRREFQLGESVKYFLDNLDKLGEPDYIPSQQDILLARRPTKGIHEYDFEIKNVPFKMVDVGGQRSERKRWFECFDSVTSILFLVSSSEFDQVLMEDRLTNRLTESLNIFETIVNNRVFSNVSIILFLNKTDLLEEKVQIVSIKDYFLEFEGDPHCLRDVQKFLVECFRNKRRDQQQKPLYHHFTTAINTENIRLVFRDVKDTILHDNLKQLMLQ

[5] = target: T5, human Gα12 fused in its N-terminal part with the tags Twin-Strep-tag and FLAG, overexpressed in HEK293 cells (human, UniProt Q03113 1-381); assay: as above
T5 construct: not shown: N-terminal Twin-Strep-tag and FLAG tags
T5 sequence (looked up): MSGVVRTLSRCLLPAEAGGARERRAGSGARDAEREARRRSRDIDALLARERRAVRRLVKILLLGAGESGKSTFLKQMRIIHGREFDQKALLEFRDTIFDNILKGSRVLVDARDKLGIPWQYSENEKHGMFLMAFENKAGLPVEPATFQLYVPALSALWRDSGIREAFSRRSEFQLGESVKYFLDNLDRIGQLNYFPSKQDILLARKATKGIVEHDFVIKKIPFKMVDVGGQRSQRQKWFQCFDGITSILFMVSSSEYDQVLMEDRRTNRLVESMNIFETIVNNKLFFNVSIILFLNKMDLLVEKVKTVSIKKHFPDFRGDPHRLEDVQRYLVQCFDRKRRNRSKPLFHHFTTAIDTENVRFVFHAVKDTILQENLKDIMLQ

[6] = target: T6, human Gαq fused in its N-terminal part with the tags Twin-Strep-tag and FLAG, overexpressed in HEK293 cells (human, UniProt P50148 1-359); assay: as above
T6 construct: not shown: N-terminal Twin-Strep-tag and FLAG tags
T6 sequence (looked up): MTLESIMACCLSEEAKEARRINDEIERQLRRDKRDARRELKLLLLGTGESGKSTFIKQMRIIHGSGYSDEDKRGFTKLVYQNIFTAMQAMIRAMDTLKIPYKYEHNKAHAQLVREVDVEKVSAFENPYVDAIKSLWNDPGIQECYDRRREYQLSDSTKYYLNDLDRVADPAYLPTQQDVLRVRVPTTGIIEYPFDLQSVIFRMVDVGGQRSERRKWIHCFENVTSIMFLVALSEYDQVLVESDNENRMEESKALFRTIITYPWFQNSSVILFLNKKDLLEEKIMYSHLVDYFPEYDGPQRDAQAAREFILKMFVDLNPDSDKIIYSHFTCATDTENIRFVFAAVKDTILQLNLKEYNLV

T1 sequence (P19086 whole entry, the tested form may be a part): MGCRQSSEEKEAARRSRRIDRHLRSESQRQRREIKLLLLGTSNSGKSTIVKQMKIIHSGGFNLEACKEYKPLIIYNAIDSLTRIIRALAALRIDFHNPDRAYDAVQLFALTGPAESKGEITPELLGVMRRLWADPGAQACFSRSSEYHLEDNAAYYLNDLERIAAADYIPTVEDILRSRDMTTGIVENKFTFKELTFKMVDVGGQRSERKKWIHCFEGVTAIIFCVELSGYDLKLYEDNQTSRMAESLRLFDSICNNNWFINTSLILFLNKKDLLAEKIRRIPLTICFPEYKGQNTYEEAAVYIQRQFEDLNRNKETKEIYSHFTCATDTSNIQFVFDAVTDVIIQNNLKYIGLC

B1: antibody DSV36S (antibody, V domains shown)
VH: EVQLQQSGAELVRPGALVKLSCKASGFNIKDYYMHWVKQRPEQGLEWIGWIDPENGNTIYDPKFQGKASITADTSSNTAYLQLSSLTSEDTAVYYCTRGGGYYSDWYFDVWGAGTTVTVSS
VL: QIVLTQSPAIMSASPGEKVTMTCSASSSVSYMHWYQQKSGTSPKRWIYDTSKLASGVPARFSGSGSGTSYSLTISSMEAEDAATYYCQQWSSNPPITFGAGTKLELK
notes: Used unlabeled or labeled with d2 (acceptor) or Lumi4Tb (donor); also called DSV36S-d2; DSV36S-Lumi4Tb
- binding result [1]: binds
- binding result [2]: binds
- binding result [3]: binds
- binding result [4]: no binding (tested: 10 nM)
- binding result [5]: no binding (tested: 10 nM)
- binding result [6]: no binding (tested: 10 nM)
